Laboratory results published in publication PMC9942873 (Immunity, 2023).
Positions count from the first letter of the chain named.

B1: RUPA-41 (antibody, V domains shown)
VH: QVQLVQSGAELKKPGASVKVSCKASGYTFTSHDITWVRQAAGQGLEWMGWMNPNTGDKGYAQKFQGRVTLTRNMSTRTAYMELNSLTSEDTAVYYCARGVGTYHGAGGWFDPWGQGTLVTVSS
VL: QSVVTQPPSVSETPGQRVTISCSGSSSNIGSNIVSWYQQLPGTAPKLLIYSDTQRPSGVPDRFSASKSGTSASLAISGLHSEDEADYYCATWDDSLKRGVFGGGTKLTVL
notes: human IgG1; source: recombinant human IgG1, 293T (Protein A purified) or GenScript
B2: RUPA-42 (antibody, V domains shown)
VH: QVQLQESGPGLVKPSQTLSLTCTVSGGSISSGGYYWSWIRQHPGKGLEWIGYIYYSGTTYYHPSLESRVTISVDTSKNQFSLKLNSVTAADTAIYYCARAGLVAAIRGSRRGQQGDYFDHWGQGTLVTVSS
VL: SYELTQPPSVSVSPGQTASITCSGEKLGDRYVSWYQQKPGQSPLLVLHQDKKRPSGIPERFSGSNSGNTATLTISGTQALDEADYFCQAWDSSTGVFGGGTKLTVL
notes: as for B1
B3: RUPA-50 (antibody, V domains shown)
VH: QVHLVESGGGVVQPGRSLRLSCAASGFTFRSYGMHWVRRVPGKGLEWVATISYDETFKDYPDSVKGRFTISRDNSKNTLFLQMNSLRPADTAVYYCAKDRAHSMHYFEYWGRGTLVTVSS
VL: SYELTQPPSVSVSPGQTARLTCSGDALPKKFAYWYQLKSGQAPVLVIYEDSKRPSGIPERFSGSSSGTTATLTISGAQVEDEADYYCYSRDGSGDQKNIFGGGTKLTVL
notes: as for B1
B4: RUPA-34 (antibody, V domains shown)
VH: EVQLVESGGGLIQPGGSLRLSCAASGFTVSSNYMSWVRQAPGKGLEWVSVIYSGGSGGSTYYADSVKGRFTISRDNLKNTLYLQMNNLRAEDAAVYYCVRDSRGWGYFDDWGQGTLVTVSS
VL: EVVLTQSPGTLSLSPGERATLSCRASQSIRTNYLAWYQQKPGQTPRLLIYGASSRATGIPDRFSGSGSGTDFTLTISRLEPEDFAVYFCQQYQNSPWTFGQGTKVEIK
notes: as for B1
B5: RUPA-25 (antibody, V domains shown)
VH: QVQLVQSGAEVKKPGASVKVSCTASGYNFLTHDISWVRQATGQGLEWMGWMNPNTGKKGYVQKFQGRVTMDRDMSKSTAYMELRSLTSEDTAVYYCVRGVGSYYGSGGWFDPWGQGTLVTVSS
VL: QPVLTQPPSASETPGQKVTISCSGSSSNIGSDTVSWYVQLPGTAPKLLIYNDNQRPSGVPDRFSGSKSGTSASLAISGLQSEDEADYYCATWDASLKRRVFGGGTTLTVL
notes: as for B1
B6: RUPA-43 (antibody, V domains shown)
VH: QVLLVQSGAEVKKPGASVKVSCKASGYTFLYHDISWVRQATGQGLEWMGWMNPNTGDTGYAQRFQGRVTMTRDMSISTAYLELGSLSSEDTAVYYCARGVGSYHGSGGWLDPWGQGTLVIVSS
VL: QSVLTQPPSVSETPGQRVTISCSGTSSNIGINTVNWYQQLPGTAPKLLIHNDNQRPSGVPDRFAGSKSGSSAALAISGLQSEDEADYYCGTWDDSLKRRVFGGGTKLTVL
notes: as for B1
B7: RUPA-50 (hIgG1) (antibody, V domains shown)
VH: B3 VH
VL: B3 VL
notes: IgG1; source: 293T cells, purified (Protein A), or produced as recombinant human IgG1 (GenScript)
B8: RUPA-29 (hIgG1) (antibody, V domains shown)
VH: QVHLVESGGGVVQPGRSLRLSCAASGFTFRSYGMHWVRLAPGKGLEWVTAIWYDGSKKHFADSVKGRFTISRDNSKNTLYLQMSSLRVEDTAVYYCARDFAHGAFYPVDWGRGTLVTVSS
VL: SYELTQPPSVSVSPGQTARITCSGDALPKKHAYWYQQKSGQAPVLVIYDDSKRPSGIPERFSGSSSGTMATLSISGAQVEDEAAYYCYSSDTSANYWVFGGGTKLTVL
notes: as for B7
B9: RUPA-54 (hIgG1) (antibody, V domains shown)
VH: QVQLVESGGGVVQPGRSLRLSCTASGFTFRSYGIHWVRQAPGKGLQWVAFISYDGRNKYYADSVKGRFTISRDNSKNTLYLQMSGLRADDTAVYYCAKDSDNDCTATSCYTVSWGQGTLVTVSS
VL: SYELTQPPSVSVSPGQTARITCSGDALPKKYAYWYQQKSGQAPVLVIYEDKKRPSGIPERFSGSSSGTMATLTISGAQVEDEADYYCYSTDSRTDHGGIFGGGTKLTVL
notes: as for B7
B10: RUPA-100 (hIgG1) (antibody, V domains shown)
VH: QVQLVESGGGVVQPGRSLRLSCAASGFSFSHYGMHWVRQAPGKGLEWVAVISYDGNYKYYGDSVKGRFTISRDNFKNTLYLQMNSLRPEDTAVYYCAKGKAHSCVSTSCYTDFWGQGTLVTVPS
VL: B9 VL with K51S, A83G, R93S, T94Y, D95N, G97R, I99V
notes: as for B7
B11: RUPA-160 (antibody, V domains shown)
VH: QVQLVQSGAEVKKPGASVKASCKASGYTFDNFDIIWARQATGQGLEWMGWMNPNTGKKGYAQNLKDRVTMTRDSSISTAYLELSSLRSEDTAVYYCVRAVGSYYGSGGWFDPWGQGTLVTVSS
VL: QSVLTQPPSASGTPGQRVTIACSGSSSNIGGNNVKWYQQLPGTAPKLVIYNNDERPPGVPDRVSGSKSGTSASLAISGVQSEDEADYYCATWDDSMKREVFGGGTKLTVL
notes: as for B1
B12: RUPA-154 (antibody, V domains shown)
VH: QVQLVQSGAEVRKPGASVKVSCRTSGYTFTDYYMHWVRQAPGEGLEWMGSINPKSGGTSYAERFQGRVTMTMETSVSTAYLDLSSLRSDDTAVYYCARLLYSRAVYYYGMDVWGQGTTVTVSS
VL: SYELTQPPSVSVAPGKTARITCGGKDLGSKSVHWYQQKPGQAPVLVIYYDNIRPSGIPERFSGSNSGNTATLTISRVEAGDEADYYCQVWDSSSDHYVFGRGAKVTVL
notes: as for B1
B13: RUPA-89 (antibody, V domains shown)
VH: DVYLLESGGGLVQPGGSLRLSCAASGFTFSNDAMSWVRQAPGKGLEWVSGILASAPRTYYADSVKGRFIISRDNSKNTLYLQMNSLRVEDTAIYYCAKEGILRPFDPWGQGTLVTVSS
VL: QSALTQPASMSGSPGQSITISCTGTSSDVGGFKYVSWYQHHPDKAPKLIIYEVNQRPSGVSNRFSGSKSGNTASLTISGLQAEDEADYYCSSYTSITYHHVFGTGTKVTVL
notes: as for B1
B14: RUPA-117 (antibody, V domains shown)
VH: QLQLQESGPGLVKPSETLSLTCTVSGGSISRSPYYWGWIRQPPGKGLEWFGSVYNNGSTYYNPSLKSRVTISVDTSKNQFSLKLSSVTAADTALYYCARHGGSTGMKVVVIAPPDYWGQGTLVTVSS
VL: DIQMTQSPATLSASVGDRVTITCRASQSISIWLAWYQQKPGEAPKLLIYKASSLQSGVPSRFSGSASGTKFSLTISSLQPDDFATFYCQQYHSYPYTFGQGTKLEIK
notes: as for B1
B15: RUPA-140 (antibody, V domains shown)
VH: EVQLLESGGGLVQPGGSLRLSCVASGFSFSNFAMNWVRQAPGKGLEWVSAISGSGGSTYYIDSVKGRFSISRDTSKNTLYLQMNSLRAEDTAVYYCAKVGGRSIFGEATDYWGQGSLVTVSS
VL: DIQMTQSPSSLSASVGDRVTITCRASQSINKYLNWYQQKPGRAPKLLIQVASSLQSGVPSRFSGSGSGTDFTLTISSLQPEDFATYYCQQTYTLPLIFGGGTKVEIK
notes: source: recombinant human IgG1, 293T (Protein A purified) or GenScript
B16: RUPA-106 (antibody, V domains shown)
VH: EVELLESGGGLVQPGGSLRISCAASGFIFNTYAMSWVRQAPGKGLEWVSAISGSGRSTYYADSVKGRFTISRDNSNNTLYLQMNSLRAEDTAVYYCAKDTHSNILYYLFDYWGQGTLVTVSS
VL: EIVLTQSPATLSLSPGERGTLSCRASQSVSSSYLGWYQQKPGQAPRLLIYGASSRATGIPDRFSGSGSGTDFTLTISRLEPEDFAVYYCHQYGISPATFGQGTKVEIK
notes: as for B1
B17: RUPA-100 (antibody, V domains shown)
VH: B10 VH
VL: B9 VL with K51S, A83G, R93S, T94Y, D95N, G97R, I99V
notes: as for B1

The binders below were run against T1, recombinant full-length Pfs48/45 (Plasmodium falciparum 3D7, UniProt Q8I6T1) (assay: ELISA). Conditions: both partners purified.
T1 sequence (Q8I6T1 28-428): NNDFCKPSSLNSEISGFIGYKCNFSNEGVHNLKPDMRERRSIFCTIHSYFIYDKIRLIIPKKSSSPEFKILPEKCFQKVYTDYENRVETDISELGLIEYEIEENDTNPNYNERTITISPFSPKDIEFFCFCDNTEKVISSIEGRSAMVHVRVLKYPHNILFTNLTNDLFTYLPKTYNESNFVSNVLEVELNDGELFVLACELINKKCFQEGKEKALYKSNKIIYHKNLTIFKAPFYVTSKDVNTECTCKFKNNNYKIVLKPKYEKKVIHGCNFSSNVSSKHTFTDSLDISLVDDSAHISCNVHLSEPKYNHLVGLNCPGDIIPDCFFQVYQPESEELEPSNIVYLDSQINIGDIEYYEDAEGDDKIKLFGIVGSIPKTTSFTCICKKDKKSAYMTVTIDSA
B1: binds. B2: binds. B3: binds. B4: binds. B5: binds. B6: binds.

What follows are binders tested against T2, Pfs48/45 D3 (Plasmodium falciparum 3D7, UniProt Q8I6T1) (assay: ELISA). Conditions: both partners purified.
T2 sequence (Q8I6T1 287-428): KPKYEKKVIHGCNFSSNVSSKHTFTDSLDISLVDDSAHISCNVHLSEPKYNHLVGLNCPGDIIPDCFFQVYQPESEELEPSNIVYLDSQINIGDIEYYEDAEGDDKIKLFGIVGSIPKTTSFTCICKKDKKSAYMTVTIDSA
B1: no binding (tested: 10 ug/ml). B2: binds. B3: binds. B4: no binding (tested: 10 ug/ml). B5: no binding (tested: 10 ug/ml). B6: no binding (tested: 10 ug/ml).

Each binder was assayed against T3, Pfs48/45 D1-2 (Plasmodium falciparum 3D7, UniProt Q8I6T1) (assay: ELISA). Conditions: both partners purified.
T3 sequence (Q8I6T1 28-289): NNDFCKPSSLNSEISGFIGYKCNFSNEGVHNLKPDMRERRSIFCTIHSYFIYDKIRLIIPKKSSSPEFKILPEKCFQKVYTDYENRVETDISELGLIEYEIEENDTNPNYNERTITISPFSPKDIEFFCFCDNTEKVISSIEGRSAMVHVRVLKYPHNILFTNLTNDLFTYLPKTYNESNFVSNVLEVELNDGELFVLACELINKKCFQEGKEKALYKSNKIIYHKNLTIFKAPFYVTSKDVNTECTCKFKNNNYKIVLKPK
B1: binds. B2: no binding (tested: 10 ug/ml). B4: binds. B5: binds. B6: binds.

These binders were tested against T4, Pfs48/45 D2-3 (Plasmodium falciparum 3D7, UniProt Q8I6T1) (assay: ELISA). Conditions: both partners purified.
T4 sequence (Q8I6T1 184-428): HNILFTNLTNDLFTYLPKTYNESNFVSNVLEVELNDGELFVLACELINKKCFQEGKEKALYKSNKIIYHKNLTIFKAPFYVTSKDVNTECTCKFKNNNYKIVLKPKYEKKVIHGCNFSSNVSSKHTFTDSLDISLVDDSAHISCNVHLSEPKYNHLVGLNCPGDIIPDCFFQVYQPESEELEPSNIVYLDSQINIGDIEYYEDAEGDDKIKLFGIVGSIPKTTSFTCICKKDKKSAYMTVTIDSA
B1: binds. B2: binds. B3: binds. B4: binds. B5: binds. B6: binds.

The binders below were run against Pfs48/45 D3 (K287-A428) (Plasmodium falciparum 3D7, UniProt Q8I6T1) (assay: ELISA). Conditions: both partners purified.
Pfs48/45 D3 (K287-A428), sequence (Q8I6T1 whole entry, looked up): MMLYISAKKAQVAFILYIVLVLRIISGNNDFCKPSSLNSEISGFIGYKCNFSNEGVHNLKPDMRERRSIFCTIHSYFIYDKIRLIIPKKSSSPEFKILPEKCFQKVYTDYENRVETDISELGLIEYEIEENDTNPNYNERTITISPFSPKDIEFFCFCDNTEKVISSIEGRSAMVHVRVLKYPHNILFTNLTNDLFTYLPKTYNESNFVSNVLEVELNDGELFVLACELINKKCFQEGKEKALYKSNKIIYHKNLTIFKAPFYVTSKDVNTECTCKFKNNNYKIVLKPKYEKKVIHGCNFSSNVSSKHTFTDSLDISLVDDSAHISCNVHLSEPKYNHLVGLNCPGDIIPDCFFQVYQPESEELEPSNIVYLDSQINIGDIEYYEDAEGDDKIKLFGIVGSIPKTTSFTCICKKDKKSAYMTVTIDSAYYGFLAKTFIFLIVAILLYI
B7: binds. B8: binds. B9: binds. B10: binds.

Biological target: T1, recombinant full-length Pfs48/45
Assay: ELISA
Conditions: both partners purified
Remark: another data set of the same source
B11: binds. B12: binds. B13: binds. B14: binds. B15: binds. B16: binds. B17: binds.

Biological target: T2, Pfs48/45 D3
Assay: ELISA
Conditions: both partners purified
Remark: another data set of the same source
B11: no binding (tested: 10 ug/ml). B12: binds. B13: binds. B14: binds. B15: binds. B16: binds. B17: binds.

Biological target: T3, Pfs48/45 D1-2
Assay: ELISA
Conditions: both partners purified
Remark: another data set of the same source
B11: binds. B12: binds.

Biological target: T4, Pfs48/45 D2-3
Assay: ELISA
Conditions: both partners purified
Remark: another data set of the same source
B11: binds. B12: binds. B13: binds. B14: binds. B15: binds. B16: binds. B17: binds.
